We go through seven substances from patent publication US7488590B2, “Modified peptides as therapeutic agents” (Amgen Inc., priority 1998, dated 2009).

Where “and” joins values, the source holds several entries; their conditions need not be identical. Equal values may be shown once. Entries after “also recorded” stand apart in the source; their conditions may differ. Where no end group is shown, it is not given here. Side-chain parts run from the residue outwards. maleimide = maleimide-containing PEG attached to the Cys side-chain thiol; PEG = not defined here

One assay concerns the target T1, human mpl receptor (Homo sapiens, UniProt P40238).
T1 construct: murine 32D cells transfected with the full-length c-Mpl; expressed in transfected cells; host or cells: IL-3 dependent clone of murine 32D cells
T1 sequence (P40238 26-635): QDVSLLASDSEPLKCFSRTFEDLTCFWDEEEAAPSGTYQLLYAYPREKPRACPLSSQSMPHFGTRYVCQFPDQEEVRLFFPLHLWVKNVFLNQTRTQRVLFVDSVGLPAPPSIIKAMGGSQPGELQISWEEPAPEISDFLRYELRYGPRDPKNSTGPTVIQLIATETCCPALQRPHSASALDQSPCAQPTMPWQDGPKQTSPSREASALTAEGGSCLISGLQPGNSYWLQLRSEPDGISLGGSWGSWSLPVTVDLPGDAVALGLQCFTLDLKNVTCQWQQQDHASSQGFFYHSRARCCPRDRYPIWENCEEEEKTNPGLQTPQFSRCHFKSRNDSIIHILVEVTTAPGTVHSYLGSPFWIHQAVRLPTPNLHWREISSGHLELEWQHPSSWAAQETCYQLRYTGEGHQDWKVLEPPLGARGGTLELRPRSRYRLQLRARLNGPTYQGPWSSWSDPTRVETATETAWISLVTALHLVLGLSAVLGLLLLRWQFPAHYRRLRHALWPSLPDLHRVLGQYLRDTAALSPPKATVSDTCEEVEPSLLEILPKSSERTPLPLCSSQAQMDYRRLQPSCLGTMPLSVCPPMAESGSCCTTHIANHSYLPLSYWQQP
Kind of assay: TPO in vitro bioassay: mitogenic (cell-proliferation) assay in IL-3 dependent murine 32D cells transfected with human mpl receptor. The class given is cell-based. How it is done: Bioactivity assay. The TPO in vitro bioassay is a mitogenic assay utilizing an IL-3 dependent clone of murine 32D cells that have been transfected with human mpl receptor. This assay is described in greater detail in WO 95/26746. Cells are maintained in MEM medium containing 10% Fetal Clone II and 1 ng/ml mIL-3. Prior to sample addition, cells are prepared by rinsing twice with growth medium lacking mIL-3. An extended twelve point TPO standard curve is prepared, ranging from […]. Four dilutions, estimated to fall within the linear portion of the standard curve, (100 to 125 pg/ml), are prepared for each sample and run in triplicate. A volume of 100 μl of each dilution of sample or standard is added to appropriate wells of a 96 well microtiter plate containing 10,000 cells/well. After forty-four hours at 37° C. and 10% CO2, MTS (a tetrazolium compound which is bioreduced by cells to a formazan) is added to each well. Approximately six hours later, the optical density is read on a plate reader at 490 nm. A dose response curve (log TPO concentration vs. O.D.-Background) is generated and linear regression analysis of points which fall in the linear portion of the standard curve is performed. Concentrations of unknown test samples are determined using the resulting linear equation and a correction for the dilution factor.
The resulting peptides are readily accessible by conventional solid phase peptide synthesis methods (Merrifield (1963), J. Amer. Chem. Soc. 85: 2149) with either Fmoc or t-Boc chemistry. […] This might be due to differences in the conditions used in the two assays. […] It is interesting to note that a wide range of length is tolerated by the linker. The optimal linker between tandem peptides with the selected TMP monomers apparently is composed of 8 glycines.

The target in a further assay is T2, IL-1R (Homo sapiens, UniProt P14778).
T2 sequence (P14778 18-569): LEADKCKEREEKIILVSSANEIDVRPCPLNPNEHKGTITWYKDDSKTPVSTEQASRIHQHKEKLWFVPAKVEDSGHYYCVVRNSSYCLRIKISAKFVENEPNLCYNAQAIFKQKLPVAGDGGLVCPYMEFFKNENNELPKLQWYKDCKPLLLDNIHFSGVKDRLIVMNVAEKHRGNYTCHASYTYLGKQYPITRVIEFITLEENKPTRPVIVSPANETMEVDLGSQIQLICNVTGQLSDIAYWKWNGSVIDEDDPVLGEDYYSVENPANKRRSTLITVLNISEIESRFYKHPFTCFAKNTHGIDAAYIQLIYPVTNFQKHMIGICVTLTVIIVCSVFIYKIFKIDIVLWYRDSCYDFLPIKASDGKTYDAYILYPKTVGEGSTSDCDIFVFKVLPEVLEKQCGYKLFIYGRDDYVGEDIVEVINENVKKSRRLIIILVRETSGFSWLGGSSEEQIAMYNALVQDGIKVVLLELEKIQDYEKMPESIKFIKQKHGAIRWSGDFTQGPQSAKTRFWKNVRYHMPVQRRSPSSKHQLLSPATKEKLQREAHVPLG
Put plainly: IL-1 Receptor Binding competition assay (IGEN system). Conditions: 0.4 nM biotin-IL-1R + 15 nM IL-1-TAG, competitor 3 uM to 1.5 pM. How it is done: Characterization of Fc-IL-1 antagonist peptide and IL-1 antagonist peptide-Fc activity. IL-1 Receptor Binding competition between IL-1β, IL-1RA and Fc-conjugated IL-1 peptide sequences was carried out using the IGEN system. Reactions contained 0.4 nM biotin-IL-1R+15 nM IL-1-TAG+3 uM competitor+20 ug/ml streptavidin-conjugate beads, where competitors were IL-1RA, Fc-IL-1 antagonist, IL-1 antagonist-Fc). Competition was assayed over a range of competitor concentrations from 3 uM to 1.5 pM.

Where [1] appears, read: TPO-dependent cell-proliferation assay, 32D cells transfected with c-Mpl.

Turning to “21: TMP tandem repeat with potential glycosylation motif NGS in its 8-amino acid linker (IEGPTLRQWLAARAGGGNGSGGIEGPTLRQWLAARA; TPO-MIMETIC PEPTIDES) [compound 21]”, the “in vitro bioactivity (in words)” value with human mpl receptor (setting [1]) is given as “maintained high bioactivity; also recorded: activity comparable to that of the —(G)8— linked analog”. Same read-out and setting: for “IEGPTLRQWLAARA (TMP) [reference compound]” the value was “relatively low biopotency”. The EC50 is the concentration giving half of the maximal effect. As usually defined, the Ki is the equilibrium dissociation constant of an inhibitor or competing ligand from its target. Consider “IL-1RA: competitor in the IL-1 receptor binding competition assay”, for which, in the assay with IL-1R, the EC50 was found to be 2.65 nM and the Ki was 1.41 nM.

As to “peptide 13: TMP tandem repeat with a linker composed of GPNG (IEGPTLRQWLAARAGPNGIEGPTLRQWLAARA; TPO-MIMETIC PEPTIDES)”, the “increase in potency as compared to the monomer” value in the assay with human mpl receptor (TPO-dependent cell-proliferation assay, 32D cells transfected with c-Mpl, versus TMP monomer) is reported as “about 100 fold”. In addition, the “decrease in activity versus the equivalent GGGG-linked analog” value with human mpl receptor (cell-proliferation assay, versus tandem repeat with 4-Gly linker) was > 10 fold and 10 fold. On to “peptide 16: TMP tandem repeat in which the two Trp residues were replaced by Ala (IEGPTLRQWLAARAGGGGGGGGIEGPTLRQWLAARA; TPO-MIMETIC PEPTIDES)”, for which the “in vitro bioactivity (in words)” value with human mpl receptor (setting [1]) was “inactive”. On the same count and under the same terms, the result for “peptide 19: PEGylated peptide (SEQ ID NO: 3); Lys side chain in linker modified by 5 kDa PEG (IEGPTLRQWLAARAGGGK(PEG 5 kDa)GGGGIEGPTLRQWLAARA)” reads “even higher in vitro bioactivity as compared to their unpegylated counterparts”; that for “peptide 20: PEGylated peptide (SEQ ID NO: 4); Cys side chain in linker modified by maleimide-containing PEG (IEGPTLRQWLAARAGGGC([maleimide-PEG])GGGGIEGPTLRQWLAARA; reading uncertain)”, “even higher in vitro bioactivity as compared to their unpegylated counterparts”.
